Results taken from patent US20060182721A1.

Molecular target: Notch on human peripheral blood CD14-positive cells (human)
Assay: cell-based or functional assay

level of HES-1 gene expression (real-time RT-PCR, ratio to GAPDH) in CD14-positive cells after 24 hours of culture: 8 times
Substance: Delta-1 construct composed of the human Delta-1 extracellular domain and 6 myc proteins (from UniProt O00548 18-545) (ligand)
